{"source": "patent CN117567617A", "about": "(CHINA RESOURCES BIOMEDICAL CO LTD, dated 2024)", "binders": {"B1": {"name": "全人源抗CLDN18.2抗体2A2 (CLDN-BC-2A2-hH1) (antibody, V domains shown)", "VH": "QVQLQQWGPGLVKPSQTLSLTCTVSGGSISSVGYYWSWIRQHPGQGLEWVGYIYYSGGTYYNPSLKSRVTISLDTSKNQFSLKLTSVTAADTAVYYCASYGSVSPYYYYYGMDVWGQGTTVTVSS", "VL": "DIVMTQSPSSVSASVGDRVTITCRASQGISSWLAWYQQKPGKAPNLLISAASSLQSGVPSRFSGNGSGTDFTLTISSLQPEDFASYYCQQANSFPITFGQGTRLEIK", "notes": "The label 2A2-hIgG1 points to a human IgG1 full antibody; Made by transient expression in ExpiCHO; also called CLN-2A2-hH1; 2A2-hIgG1"}}, "key": {"[1]": {"target": "T1, CLDN18.2 (species not stated)", "T1 construct": "whole, on cells; the form of the antigen in the ka/kd/KD measurement is not described; also called CLDN18.2过表达细胞; claudin18.2", "assay": "affinity measurement, method not described"}, "[2]": {"target": "T1, CLDN18.2 (species not stated at that …)", "assay": "flow cytometry on CLDN18.2-overexpressing cells, MFI against antibody concentration"}}}
{"binder": "B1", "values": [{"measurement": "Kd", "setting": "[1]", "value": 5.24, "unit": "nM"}, {"measurement": "koff", "setting": "[1]", "value": 0.00172, "unit": "s⁻¹"}, {"measurement": "kon", "setting": "[1]", "value": 328000, "unit": "M⁻¹ s⁻¹"}, {"measurement": "EC50", "setting": "[2]", "value": 0.62, "unit": "µg/mL"}]}
